# Legend:
# Assay type in all cases: biochemical
# gluten [1] = experiment: Degree of hydrolysis in gluten hydrolyses with and without 185 mM NaCl; design: Degree of hydrolysis: unit not given here; details: for Degree of hydrolysis: Gluten, 50° C., 18 hr
# Method: (§1) Sodium chloride is frequently applied in the food industry to reduce the microbial contamination risk in protein hydrolyses. Pre-hydrolysed 10% (w/w) soy (SUPRO® 760, DuPont, Brabrand, Denmark) and gluten (Sigma-Aldrich, Schnelldorf, Germany) was prepared by addition of 1% (w/wprotein) FOODPRO® Alkaline Protease (DuPont, Brabrand, Denmark) and 1% (w/wprotein) FOODPRO® PNL (DuPont, Brabrand, Denmark). The hydrolyses were performed at 50° C. at pH 7.0 (without pH control) for 18 hr (heat inactivation after 18 hr; 90° C.; 10 min). Subsequently, the hydrolyses were divided in sodium chloride containing (185 mM) and non-salt containing hydrolyses. 150 μL of each pre-hydrolysed protein suspension was combined with differently standardized Aspergillus clavatus PepN 2 as indicated in Table 3. The hydrolyses were conducted at 50° C. without pH control and terminated after 18 hr by addition of 20 μL of 2 M TCA. Prior to the determination of the DH (Nielsen, Petersen et al. 2001, infra), all samples were filtered 0.22 μm.
# soy = experiment: Degree of hydrolysis in soy hydrolyses with and without 185 mM NaCl; design: Degree of hydrolysis: unit not given here; details: for Degree of hydrolysis: SOY, 50° C., 18 hr
# Method: as §1
# [2] = system: whey protein isolate (WPI); experiment: Degree of hydrolysis of WPI with endopeptidases plus PepN; details: for Degree of hydrolysis: 50° C., 18 hr
# Method: Enzyme activities of PepN 1 Lactobacillus helveticus ATCC® 12046, PepN 1 Aspergillus oryzae and from PepN 2 from Aspergillus clavatus (TRI035) were determined according to Stressler, Eisele et al. (2013, infra). PepN 1 from L. helveticus was expressed and purified as described by Stressler, Eisele et al. (2013, infra).
# The PepN 1 and 2 aminopeptidases were standardized to the activity range of 2.5-200 nkat*mL^−1. For protein hydrolyses, 1% (w/wWPI) FOODPRO® Alkaline Protease (DuPont, Brabrand, Denmark) and 1% (w/wWPI) FOODPRO® PNL (DuPont, Brabrand, Denmark) were added to the whey protein isolate suspension (WPI; LACPRODAN® 9224, Arla Ingredients, Viby, Denmark) with an initial pH of 7.0. Following the endopeptidases addition, the WPI was mixed and 200 μL were transferred to each well of a 96-well microtiter plate. The hydrolysis was conducted at 50° C. without pH control and terminated after 18 hr by addition of 20 μL of 2 M TCA. Prior to the determination of the DH (Nielsen, Petersen et al., 2001, infra), all samples were filtered 0.22 μm.
# gluten [3] = experiment: Glutamic acid liberation in gluten hydrolyses (pH and temperature optimum)
# Method: The liberation of glutamic acid is an important quality parameter in vegetable protein hydrolyses such as soy or gluten hydrolyses. The liberated glutamic acid can be perceived as the so-called “umami-flavor”. In order to determine the effect of the initially applied pH in gluten hydrolyses in terms of glutamic acid and glutamine liberation, the initial pH of a gluten hydrolyses was adjusted just after the liquefaction of the gluten after 15-30 min with 1 M HCl. Gluten was treated with Glutaminase (Amano, Japan). In addition, gluten was treated with FoodPro Alkaline Protease, FoodPro PNL as well as PepN 2 (Neosartorya fischeri). After 20 hr, the hydrolysis was terminated employing ultrafiltration (10 kDa cut-off, Sartorius Stedium Biotech, Göttingen, Germany). The permeate was applied for the enzymatic glutamic acid analyses (enzymatic L-glutamic acid analysis kit, Roche, Mannheim, Germany).
# In order to determine the effect of the applied temperature during the gluten hydrolyses in terms of glutamic acid and glutamine liberation, the initial pH was adjusted with 1 M HCl to pH 7.0 just after the liquefaction of the gluten suspension after 15-30 min. Gluten was combined with Glutaminase (Amano, Japan). In addition, gluten was combined FOODPRO® Alkaline Protease, FOODPRO® PNL as well as PepN 2 (Neosartorya fischeri). […]
# [4] = 185 mM NaCl, protein concentration 0.2 mg/mL
# [5] = 185 mM NaCl, protein concentration 0.3 mg/mL
# [6] = 185 mM NaCl, protein concentration 0.4 mg/mL
# [7] = 185 mM NaCl, protein concentration 0.5 mg/mL
# [8] = reference (no salt), protein concentration 0.2 mg/mL
# [9] = reference (no salt), protein concentration 0.3 mg/mL
# [10] = reference (no salt), protein concentration 0.4 mg/mL
# [11] = reference (no salt), protein concentration 0.5 mg/mL
molecule,measurement,setting,value
"TRI035: fungal aminopeptidase type-2 (pepN_2), NCBI XP_001273779 from Aspergillus clavatus NRRL 1 (protein, Synthetic peptide with leader sequence) MQTFGAFLVSFLAASGLAAANAPGGPGGHGRKLPVNPKTFPNEIRLKDLLHGSQKLEDFAYAYPERNRVFGGQAHLDTVNYLYRELKKTGYYDVYKQPQVHQWTRADQSLTLGGDSIQASTMTYSPSVNVTAPLSLVSKLGCAEGDYSADVKGKIALVSRGECSFAQKSVLSAKAGAVATIVYNNVDGSLAGTLGGATSELGPYSPIIGITLAAGQDLVARLQAAPTEVSLWIDSKVENRTTYNVIAQTKGGDPNNVVALGGHTDSVENGPGINDDGSGVISNLVVAKALTRYSVKNAVRFCFWTAEEFGLLGSNYYVDNLSPAELAKIRLYLNFDMIASPNYALMIYDGDGSAFNLTGPPGSAQIESLFENYYKSIKQGFVPTAFDGRSDYEGFILKGIPAGGVFTGAESLKTEEQARLFGGQAGVALDANYHAKGDNMTNLNHKAFLINSRATAFAVATYANNLSSIPPRNATVVKRESMKWTKREEPHTHGADTGCFASRVKE",Degree of hydrolysis,"gluten [1]; 185 mM NaCl, protein concentration 0.1 mg/mL",14
same,Degree of hydrolysis,gluten [1]; [4],15
same,Degree of hydrolysis,"gluten [1]; 185 mM NaCl, protein concentration 0.25 mg/mL",15
same,Degree of hydrolysis,gluten [1]; [5],16
same,Degree of hydrolysis,gluten [1]; [6],17
same,Degree of hydrolysis,gluten [1]; [7],18
same,Degree of hydrolysis,"gluten [1]; reference (no salt), protein concentration 0.1 mg/mL",14
same,Degree of hydrolysis,gluten [1]; [8],16
same,Degree of hydrolysis,"gluten [1]; reference (no salt), protein concentration 0.25 mg/mL",17
same,Degree of hydrolysis,gluten [1]; [9],16
same,Degree of hydrolysis,gluten [1]; [10],17
same,Degree of hydrolysis,gluten [1]; [11],18
same,influence of 185 mM NaCl on the determined degree of hydrolysis,gluten [1]; gluten hydrolyses,no influence
same,Degree of hydrolysis,soy; [4],10
same,Degree of hydrolysis,soy; [5],11
same,Degree of hydrolysis,soy; [6],11
same,Degree of hydrolysis,soy; [7],12
same,Degree of hydrolysis,soy; [8],11
same,Degree of hydrolysis,soy; [9],12
same,Degree of hydrolysis,soy; [10],12
same,Degree of hydrolysis,soy; [11],12
same,influence of 185 mM NaCl on the determined degree of hydrolysis,soy; soy hydrolyses,no influence
same,Degree of hydrolysis,[2]; PepN dosage 2.5 nkat/mL in stock solution,15%
same,Degree of hydrolysis,[2]; PepN dosage 5 nkat/mL in stock solution,17%
same,Degree of hydrolysis,[2]; PepN dosage 10 nkat/mL in stock solution,17%
same,Degree of hydrolysis,[2]; PepN dosage 25 nkat/mL in stock solution,20%
same,Degree of hydrolysis,[2]; PepN dosage 50 nkat/mL in stock solution,24%
same,Degree of hydrolysis,[2]; PepN dosage 75 nkat/mL in stock solution,26%
same,Degree of hydrolysis,[2]; PepN dosage 100 nkat/mL in stock solution,35%
same,Degree of hydrolysis,[2]; PepN dosage 200 nkat/mL in stock solution,36%
same,higher DH than the PepN 1 aminopeptidases,[2]; at the two highest dosages,at least 25%
"TRI031: fungal aminopeptidase type-2 (pepN_2), NCBI XP_001258675 from Neosartorya fischeri NRRL 181, expressed in Trichoderma reesei (protein, Synthetic peptide with leader sequence, fungal aminopeptidase type-2 (pepN_2), NCBI XP_001258675 from Neosartorya fischeri NRRL 181, expressed in Trichoderma reesei) MQTFGAFLVSFLAASGLAAANGPGWDWKPPVHPKVLPQMIHLWDLMHGAQKLEDFAYAYPERNRVFGGPAHEDTVNYLYRELKKTGYYDVYKQPQVHQWTRADQALTVDGKSYVATTMTYSPSVNVTAPLAVVNNLGCVESDYPADLKGKIALVSRGECPFATKSVLSAKAGAAAALVYNNIEGSMAGTLGGPTSELGPYAPIAGISLADGQALIQMIQAGTVTANLWIDSKVENRTTYNVIAQTKGGDPNNVVALGGHTDSVEAGPGINDDGSGIISNLVVAKALTRFSVKNAVRFCFWTAEEFGLLGSSYYVNSLNATEKAKIRLYLNFDMIASPNYALMIYDGDGSAFNLTGPAGSAQIERLFEDYYKSIRKPFVPTEFNGRSDYEAFILNGIPAGGIFTGAEAIKTEEQAKLFGGQAGVALDANYHAKGDNMTNLNREAFLINSKATAFAVATYANSLDSIPSRNMSTVVKRSQLEQAKKSTPHTHTGGTGCYKDRVEQ",temperature at which PepN 2 performed most efficient (glutamic acid liberation),"gluten [3]; gluten hydrolysis 20 h, initial pH 7.0, range 40-60° C., FIG. 3",60 °C
same,pH range in which PepN 2 performed more efficient (glutamic acid liberation),"gluten [3]; gluten hydrolysis 20 hr with Glutaminase, FoodPro Alkaline Protease, FoodPro PNL, compared to pH 6.0, FIG. 2",7.0-9.0

# Source: patent publication US11473073B2, “Aminopeptidases for protein hydrolyzates” (DUPONT NUTRITION BIOSCIENCES APS, priority 2015, dated 2022)
